# Results: the nanobody polyreactivity screen of Harvey et al. (2022)
# Assay: yeast display, Sf9 membrane polyspecificity reagent, FACS + sequencing; frameworks hold sequencing errors
# In short: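 Polyreactivity labels are assigned by the sorting gate from which each nanobody was recovered. The gates were low and high (top ~1%), set on anti-HA fluorescence for expression and streptavidin fluorescence for reagent binding. Before sorting, galactose-induced (36–48 hours) yeast display cells were stained for 1 hour at 4 °C with 10% biotinylated, detergent-solubilized Sf9 membrane reagent.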
row,Sequence,polyreactivity (PSR sort gate)
1,QVQLLEAGGGLVQAGGSLRFSCAHSGSIVSHYAIGWYRQAPGKERELVAAITGGGITYYADSVKGRFTISRDNAKNTVYLQMNSLKPEDTAVDYCDTDSLMFTIYDYWGQGTQVTVSS,low polyreactivity
2,QVQLVESGGGLVQAGGSLRLSCAASGRTFPVYDMGWYRQAPGKERELVAGITGSGGRTYYADSVKGRFTISRDNAKNTVYLQMNSLKPEDTAVYYCAADRNLYWDQHEYWGQGTQVTVSS,low polyreactivity
3,QVQLVESGGGLVQAGRSLRLLSAASGSSIYFNGMGWYRQAPGKERELVAAITSGGSTDYADSVKGRFTISRDNEKNSVYLLMYSLKPEDTAVYYCNVQNGDRQITGYDYWGLGTQVTVSS,low polyreactivity
4,QEQLQESGGGLVKAGGSLRLSCAASGNISNHNDMGWYRQAPGKEREFVAGITAGGITNYADSVKGRFTISRDNAKNTVYLQMNSLKPEDTAVYYCAAYPDYAKSYGYWGQGTQATVSS,low polyreactivity
5,QLQLEESGGGLVQAGGSLRLSSAASGRTFYYYAIGWYRQAPGKERELVAAISRGGSTYYADSVKGRFTISRDNAKITVYLQMHSLKPEDTAVYYCAAVLRPDRYDYWGQGTQVTVSS,high polyreactivity
6,QVQLVESGGGLVQAGGSLRLSCAASGSIFNPYDMGWYRQAPGKERELVATISGGGGSTYYADSVKGRFTISRDNAKNTVYLQMNSLKPEDTAVYYCNKTDFNTNDLKFDYWGQGTQVTVSS,low polyreactivity
7,QVQLVESGGGLVQAGGSLRLSCAASGSIFGDNAMGWYRQAPGKERELVAAITSSGGSTYYADSVKGRFTISRDNAKNTVYLQMNSLKPEDTAVYYCNADFGYGWYLRYDYWGQGTQVTVSS,high polyreactivity
8,QVQLVESGGGLVQAGGSLRLAVLPPDLPSTLNDMGWYRQAPGKERELVAAITRGGSTNYADSVKGRFTISRDNAKNTVYLEMNSLKPEDTAVYYCAAPYAGWRDGGDYWGQGTQVTVSS,low polyreactivity
9,QVQLVESGGGLVQAGGSLRLSCAASGIIFYRYAMGWYRQAPGKERELVAAITWRGGSTYYADSVKGRFTISRDNAMNTVYLQMNSLKPEDTAVYYCAARRRATYELDYWGQGTQVNVSS,high polyreactivity
10,QVQLVESGGGLVQAGGSLRLSCAASGSIFVAYAMGWDRQAPGKERELVAAISSSGGTTYYAYSVKGRFTISRDNAKNTVYLQMNSLKPEDTAVYYCAARDYKYYYWGQGTQVTVSS,high polyreactivity
11,QFQLVESGGGLVQAGGSLRLSSAASGSTFYYNAMGWYRQAPGKERELVAVITSGVSTYYADSVKGRFTISRDNAKNTVYLQMNSLKPVDTAVYYCAADLYRPYEYQLDYWGHGTQVTVSS,low polyreactivity
12,QVQLVESGGGLVQAGGSLRLSCAASGFTFWDYAMGWYRQAPGKERELVATISSDGSTNYADSVKGRFTISRDNAKNTVYLQMNSLKPEDTAVYYCAADGYLYFWYPYDYWGQGTQVTVSS,low polyreactivity
13,QVQLVESGGGLVQAGGSLRLSCAASGFIFSWYAMGWYRQAPGKERELVAAIDQSGDSTYYADSVKGRFTISRDNAKNTVYLQMNSLKPEDTAVYYCAAQSYDYWYDYDYWGQGTQVTVSS,high polyreactivity
14,QVQLVESGGGLVQAGGSLRLSCAASGSTFIANAMGWYRQAPGKEREFVATISRRGGSTYYADSVKGRFTISRDNAKNTVYLQMNSLKPEDTAVYYCAARPLTYIRFRYYYWGQGTQVSVSS,high polyreactivity
15,QVQLVESGGGLVQVGGSLRLICAASGGIFSGNAMGWYRQAPGKERELVAGITNGGRTTYADSVKGRFTISRDNAKNTVYLQMNSLKPEDTAVYYCAAGKIGRRGHQNRLDLDYWGQGTQVTVSS,low polyreactivity
16,QVQLVESGGGLVQAGGSLRLSCAASGFIFYGNAMGWYRQAPGKERELVATISDGGSTNYADSVKGRFTISRDNAKNTVYFQMNSLKPEDTAVYYCATEYYTPVRGYGYWGQGTQVTVSS,low polyreactivity
17,QVQLVESGGGLVQAGGSLRLSCAASGRTFRHNAMGWYRQAPGKERELVAANSSGGSTYYADSVKGRFTISRDNAKNTVYLQLYSLKREDTAVYYCAASRYRPYGGTTTDYWGQGTQLTVSS,high polyreactivity
18,QVQLVESGGGLVQAGGSLRLSCAASGRIIYENAMGWYRQAPGKEREFVAAITGSGGSTYYADSVKGRFTISRDNAKNTVYLQMISLKPEDTEVYYCAAPLSSYWVYIVRYGYDYWGQGTQVTVSS,low polyreactivity

row,Sequence,polyreactivity (PSR sort gate)
1,QVQLVESGGGLVQAGGSLRLSCAASGRIFRGNAMGWYRQPPGKERELGATITRSGARTYYADSVKGRFTISRDNAKNTVYLQMNSLKPEDTAVYYCAARRVRSYAYDYWGQGTQVTVSS,high polyreactivity
2,QVQLVESGGGLVQAGGSLRLSCAASGSTLVDYAMGWYRQAPRKERELVATISFRGGSTYYADSVKGRFTISRDNAKNTVYLQMNSLKPEDTAVYYCAREYGDGYEYWGQGTQVTVSS,low polyreactivity
3,QVQLVESGGGLVQAGGSLRLSCAASGSTFQFYAMGWYRQAPGKEREFVAAIDFGGAGTYYADSVKGRFTISRDTAKNTVYLQMNSLKPEDTAVYYCNARDGVTSEFDYWGQGTQVTVSS,low polyreactivity
4,QVQLVESGGGLVQAGGSLRLSCAASGRISLFNAMGWYRQAPGKERELVAAITYTGGSTYYADSVKGRFTISRDNAKNTVYLQMNSLKPEDTAVYYCAAEYYYVYTYDYWGQGTQVTVSS,high polyreactivity
5,QVQLVESGGGLVQAGGSLRLSCAASGITIYDNDMGWYRQAPWKERELVAGITRTTVGTYYADSVKGRFTISRDNAKNTVYLQMNSLKPEDTAVYYCAATSLAGYYQFDYWGQGTQVTVSS,low polyreactivity
6,QVQLVESGGGLVQAGGSLRLSCAASGGIFYLNAMGWYREAPGKERELVAAISSGVSTYYADSVKGRFTISRDNAKNTVYLQMNSLKPEDTAVYYCNADYNYPAWVGSWWDYDYWGQGTQVTVSS,low polyreactivity
7,QVQLVESGGGLVQAGGSLRLSCAASGRIFTHNAMGWYRQAPGKERELVAAISYSGVSTYYADSVKGRFTISRDNAKNTVYLHMNSLKPEDTAVYYCNALIQSWRARIRRYYWGQGTQVTVSS,low polyreactivity
8,QVQLVDSGGGLVQAGGSLRFSCAASGRTSNVYAMGWFRQAPGKERELVAAISARDGTTYNADSVKGRFTISRDNAKNTVYLQMNSLKPEDTAVYYCAAAVLSYADYYYDYEYWGQGTQVTVSS,high polyreactivity
9,QVQLVESGGGLFQAGGSLRLSCAASGRTFEINAMGWYRQAPGKERELVARISWSGGRTYYADSVKGRFTISRDNAKNTVYLQMNSLKPEDTAVYYCAAVLYSGGNYDSWGQGTQVTGSS,high polyreactivity
10,QVQLVESGGGLVQAGGSLRLSCAASGRTFYPYAMGWYRQAPGKERELVAAISSSGGSTYYADSVKGRFTISRDNAKNTVYLQRNSLKPEYTPVYYCASYLRPGGNYYWGQGTQVTVSS,high polyreactivity
11,QVQLVESGGGLVQAGGSLRLSCAASGLIFYVYAMGWYRQAPGKERELVAAISFRGTSTYADSVKGRFTISRDNAKNTVYFQMNSLKPEDTAVYYCAVTGFDVLWPSLGGELDYWGQGTQVTVSS,low polyreactivity
12,QVQLVESGGGLVQAGGSLRLSCAASGRTFPFYAMGWYRQAPGKERELVAAINSGGITNYADSVKGRFTISRDNAKNTVYLQMNSLKPEDTAVYYCAAKTAFYRERGYWGQGTQVTVSS,low polyreactivity
13,QVQLVESGGGLDQAGGSIRLSCAASGGTFKANAMGWYRQAPGKEREVVAAIRQTGGSTYYADSVKGRFTISRDNEKNTVYLQMNSLKPEDTAVYYCAAQSHRYWIYDYWGQCTQVTVSS,high polyreactivity
14,QVQLVQSGGGLVQAGGSLRLSCAASGRIFNYNAMGWYRQAPGKERELVAAINRSGVSTHYADSVKGRFTISRDNAKNTVYLQMNSLKPEDTAVYYCARTVYGARSYDYWGQGTQVTVSS,low polyreactivity
15,QVQLVESGGGLVQAGGSLRLSCAASGLIFYYNAMGWYRQAPGKERELVAAISSDGTTDYADSVKGRFTISRDNAKNTVYLQMNSLKPEDTAVYYCNADKAVKLSGYGRADYDYWGQGTQVTVSS,low polyreactivity
16,QVQLVESGGGLVQAGGSVRLSCAASGRIFSRKAMRWYIQAPGKERELVAAISRSGTSTYYADSVKGRFTISRDNAKNTVYLQMNSLKPEDNAVYYCAADYPAVISIRRYDYWGQGTQVTVSS,low polyreactivity
17,QVQLVESGGCIVQAGGSLRLSCAASGFTFRTNTKGWYRQAPGKDRELVAAISRSGGSTYYADSVKGRFTISRDNAKNTVYLQMNSLKPEDTAVYDCNAVGRSDSYYLAYNYWGQGTQVTVSS,high polyreactivity
18,QVQLVESGGGLVQAGGSLRLSCAASGRIFGKYAMGWYRHAPGKERELVAAIRSRGSTTYYADSVKGRFTISRDNAKNTVYLQMNSLKPEDTAVYYCAKDVGGKPWYPYGYWGQGTQVTVSS,high polyreactivity
